Here are results for two molecules from PMC3479173.

Residue numbers refer to the chain shown, from its start.

The target in data set [1] is T1, THAP1 THAP domain WT (human, UniProt Q9NVV9 1-81).
T1 sequence: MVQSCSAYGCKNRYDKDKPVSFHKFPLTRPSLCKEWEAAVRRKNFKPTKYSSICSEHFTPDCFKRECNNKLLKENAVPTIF
Description: fluorescence quenching.

In data set [2] the target is T2, THAP1 THAP domain N12K (human, UniProt Q9NVV9 1-81, N12K).
T2 sequence: T1 sequence with N12K
As to the kind of experiment: fluorescence quenching.

The target in data set [3] is T1, THAP1 THAP domain WT. Description: ITC.
The target of data set [4] is T2, THAP1 THAP domain N12K. As to the kind of experiment: ITC.
A further data set deals with T3, THAP1 THAP domain D17G (human, UniProt Q9NVV9 1-81, D17G).
T3 sequence: T1 sequence with D17G
Description: fluorescence quenching.

In data set [5] the target is T4, THAP1 THAP domain F81L (human, UniProt Q9NVV9 1-81, F81L).
T4 sequence: T1 sequence with F81L
As to the kind of experiment: fluorescence quenching.

Data set [6] concerns the target T5, THAP1 THAP domain Y8C (human, UniProt Q9NVV9 1-81, Y8C).
T5 sequence: T1 sequence with Y8C
As to the kind of experiment: fluorescence quenching.

For data set [7], the target named is T4, THAP1 THAP domain F81L. Description: ITC.
For data set [8], the target named is T5, THAP1 THAP domain Y8C. Description: ITC.

B1: 14-bp non-specific DNA (ns) (dsDNA)
DNA 1: GATTTGCATTTTAA
DNA 2: TTAAAATGCAAATC
In the case of B1, the Kd was determined as 1800 ± 150 nM with THAP1 THAP domain WT [1], 400 ± 65 nM in the data set with THAP1 THAP domain N12K [2], 8930 ± 1280 nM with THAP1 THAP domain WT [3] and 1750 ± 500 nM with THAP1 THAP domain N12K [4].

B2: RRM1 16-bp DNA probe (dsDNA)
DNA 1: GCTTGTGTGGGCAGCG
DNA 2: CGCTGCCCACACAAGC
In the case of B2, the equilibrium dissociation constant (Kd) was found to be 25 ± 5 nM with THAP1 THAP domain D17G; 150 ± 10 nM with THAP1 THAP domain WT [1]; 100 ± 10 nM in the data set with THAP1 THAP domain F81L [5]; 230 ± 20 nM in the data set with THAP1 THAP domain Y8C [6]; 540 ± 190 nM with THAP1 THAP domain WT [3]; 700 ± 60 nM in the data set with THAP1 THAP domain F81L [7]. The same molecule had a Kd with THAP1 THAP domain Y8C [8] of 510 ± 100 nM.
